Our source for the transduction (mNeonGreen+) of CD4+ cells in a mixture of CD4+ and CD8+ primary human T cells treated with Env-Cas9-VLPs, highest treatment dose values is patent publication US20260146247A1.

This assay deals with CD4 (human) (UniProt P01730). Put plainly: cell-based or functional assay.

As to “HIV-1 envelope glycoprotein (Env) (from UniProt P04578 33-856)”, the transduction (mNeonGreen+) of CD4+ cells in a mixture of CD4+ and CD8+ primary human T cells treated with Env-Cas9-VLPs, highest treatment dose came out at 53.2%.
